B1: WW domain-binding protein 1 (Homo sapiens), Q96G27 (parent)
chain: MARASSGNGSEEAWGALRAPQQQLRELCPGVNNQPYLCESGHCCGETGCCTYYYELWWFWLLWTVLILFSCCCAFRHRRAKLRLQQQQRQREINLLAYHGACHGAGPFPTGSLLDLRFLSTFKPPAYEDVVHRPGTPPPPYTVAPGRPLTASSEQTCCSSSSSCPAHFEGTNVEGVSSHQSAPPHQEGEPGAGVTPASTPPSCRYRRLTGDSGIELCPCPASGEGEPVKEVRVSATLPDLEDYSPCALPPESVPQIFPMGLSSSEGDIP
partner: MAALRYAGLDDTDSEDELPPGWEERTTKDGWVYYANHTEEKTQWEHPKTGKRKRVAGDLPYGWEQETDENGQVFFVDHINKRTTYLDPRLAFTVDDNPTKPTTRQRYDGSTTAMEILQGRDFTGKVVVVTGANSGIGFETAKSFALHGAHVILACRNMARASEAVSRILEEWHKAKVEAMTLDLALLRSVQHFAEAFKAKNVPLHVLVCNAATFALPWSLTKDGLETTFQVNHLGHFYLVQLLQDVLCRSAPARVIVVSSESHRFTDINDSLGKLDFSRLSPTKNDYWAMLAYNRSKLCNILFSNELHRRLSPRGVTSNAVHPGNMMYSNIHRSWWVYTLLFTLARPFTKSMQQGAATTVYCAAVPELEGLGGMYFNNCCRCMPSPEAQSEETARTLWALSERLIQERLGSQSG
B2: Lipopolysaccharide-induced tumor necrosis factor-alpha factor (Homo sapiens), Q99732 (parent)
chain: MSVPGPYQAATGPSSAPSAPPSYEETVAVNSYYPTPPAPMPGPTTGLVTGPDGKGMNPPSYYTQPAPIPNNNPITVQTVYVQHPITFLDRPIQMCCPSCNKMIVSQLSYNAGALTWLSCGSLCLLGCIAGCCFIPFCVDALQDVDHYCPNCRALLGTYKRL
partner: B1 partner
B3: WW domain-containing oxidoreductase (Homo sapiens), Q9NZC7 (parent)
chain: B1 partner

Variants of: B1
Details: with wwox_human WWOX

Variant | effect of a mutation on the interaction
MARASSGNGSEEAWGALRAPQQQLRELCPGVNNQPYLCESGHCCGETGCCTYYYELWWFWLLWTVLILFSCCCAFRHRRAKLRLQQQQRQREINLLAYHGACHGAGPFPTGSLLDLRFLSTFKPPAYEDVVHRPGTPPPPATVAPGRPLTASSEQTCCSSSSSCPAHFEGTNVEGVSSHQSAPPHQEGEPGAGVTPASTPPSCRYRRLTGDSGIELCPCPASGEGEPVKEVRVSATLPDLEDYSPCALPPESVPQIFPMGLSSSEGDIP [Y141A] | disrupting interaction

Variants of: B2
Details: with wwox_human WWOX

Variant | effect of a mutation on the interaction
Y23A;Y61A | disrupting interaction
Y23A | decreasing interaction

Variants of: B3
Details: with litaf_human LITAF

Variant | effect of a mutation on the interaction
MAALRYAGLDDTDSEDELPPGWEERTTKDGWVYYANHTEEKTQFEHAKTGKRKRVAGDLPYGWEQETDENGQVFFVDHINKRTTYLDPRLAFTVDDNPTKPTTRQRYDGSTTAMEILQGRDFTGKVVVVTGANSGIGFETAKSFALHGAHVILACRNMARASEAVSRILEEWHKAKVEAMTLDLALLRSVQHFAEAFKAKNVPLHVLVCNAATFALPWSLTKDGLETTFQVNHLGHFYLVQLLQDVLCRSAPARVIVVSSESHRFTDINDSLGKLDFSRLSPTKNDYWAMLAYNRSKLCNILFSNELHRRLSPRGVTSNAVHPGNMMYSNIHRSWWVYTLLFTLARPFTKSMQQGAATTVYCAAVPELEGLGGMYFNNCCRCMPSPEAQSEETARTLWALSERLIQERLGSQSG [W44F;P47A] | disrupting interaction
MAALRYAGLDDTDSEDELPPGWEERTTKDGWVYYANHTEEKTQWEHPKTGKRKRVAGDLPYGWEQETDENGQVFFVDHINKRTTALDARLAFTVDDNPTKPTTRQRYDGSTTAMEILQGRDFTGKVVVVTGANSGIGFETAKSFALHGAHVILACRNMARASEAVSRILEEWHKAKVEAMTLDLALLRSVQHFAEAFKAKNVPLHVLVCNAATFALPWSLTKDGLETTFQVNHLGHFYLVQLLQDVLCRSAPARVIVVSSESHRFTDINDSLGKLDFSRLSPTKNDYWAMLAYNRSKLCNILFSNELHRRLSPRGVTSNAVHPGNMMYSNIHRSWWVYTLLFTLARPFTKSMQQGAATTVYCAAVPELEGLGGMYFNNCCRCMPSPEAQSEETARTLWALSERLIQERLGSQSG [Y85A;P88A] | decreasing interaction

Reference: IntAct's records for PubMed 15064722
